Test results: patent publication EP4671273A1 (Anaveon AG, dated 2025)
Substitutions are numbered along the chain they refer to.

B1: ZAP122 (antibody, human IgG1, V domains shown)
VH: QVQLQESGPGLVKPSETLSLTCTVSGGSISSDFWGWIRQPPGKGLEWIGYISSRGSTNYNPSLKRRVTISVDTSRNQFSLKLSSVTAADTAVYYCARSAGVTDFDFWGQGTLVTVSS
VL: DIQMTQSPSSVSASVGDRVTITCRASQGISSWLAWYQHKPGKAPKLLIYVASSLQSGVPSRFSGSGSGTDFTLTISSLQPEDFATYYCQQANSFPLTFGGGTKVEIK
B2: MIZ926 (antibody, human IgG1, V domains shown)
VH: EVQLVESGGGSVKPGGSLKLSCAASGLTFSHYYMYWVRQTPEKRLEWVAIISDGGDYTHYSDSVKGRFTISRDNAKNNLYLQMSSLQSEDTAMYYCAGDYGYGYEGWFAYWGQGTLVTVST
VL: DIVMTQSQKFMSTSVGDRVSVTCKASQNVDTYVAWYQQKPGQSPKALIYSTSYRYSGVPDRFTGSGSGTDFTLTISNVQSEDLAEYFCQQYNSYPWTFGGGTKLEIK
B3: LKK631 (antibody, human IgG1, V domains shown)
VH: EVQLQQFGAEVVKPGASVKMSCKASGYTFTDYNMNWVKQSHEKSLEWIGDIHPKFHSTNYNQKFKGKATLTIDTSSSTAYMELRNLTSEDTAVYYCARVGNYVYFVMDYWGQGTSVTVSS
VL: SIVMTQTPKFLLVSAGDRVTITCKASQSVSNDVAWYQQKPGQSPKLLIYYASNRYTGVPDRFSGSGYGTDFTFTISTVQAEDLAVYFCQQDYTSPWTFGGGTKLEIK
B4: ZAP122p2 Fab (Fab, V domains shown)
VH: B1 VH
VL: B1 VL with N92S
notes: Fab
B5: XVT458-z2-m6 (antibody, human IgG1, V domains shown)
VH: VQLVQSGAEVKKPGASVKVSCKASGYTFTNFYIHWVRQAPGQGLEWMGSIYPNYGITAYNQKFKDRVTMTVDTSTSTAYMELRSLRSDDTAVYYCARGYSYAMDYWGQGTTVTVSS
VL: DIQMTQSPSSVSASVGDRVTITCSASQGISGDLNWYQQKPGKAPKLLIYHTSQLHSDVPSRFSGSGSGTDFTLTISSLQPEDFATYYCQGYSKDLLTFGGGTKLEIK
notes: human IgG1; also called anti-PD-1 antibody clone XVT458-z2-m6
B6: ACH836 (antibody, human IgG1, V domains shown)
VH: B5 VH
VL: B5 VL with I29A
notes: human IgG1
B7: BBJ602 (antibody, human IgG1, V domains shown)
VH: B5 VH with A102G
VL: B5 VL
notes: human IgG1
B8: DKR699 (antibody, human IgG1, V domains shown)
VH: B5 VH with I56D
VL: B5 VL
notes: human IgG1
B9: ICW519 (antibody, human IgG1, V domains shown)
VH: B5 VH with K64Q
VL: B5 VL
notes: human IgG1
B10: JPK663 (antibody, human IgG1, V domains shown)
VH: B5 VH
VL: B5 VL with I21A
notes: human IgG1
B11: KOB135 (antibody, human IgG1, V domains shown)
VH: B5 VH
VL: B5 VL with L54Q
notes: human IgG1
B12: NRT742 (antibody, human IgG1, V domains shown)
VH: B5 VH
VL: B5 VL with T51A
notes: human IgG1
B13: OKM590 (antibody, human IgG1, V domains shown)
VH: B5 VH with Y105V
VL: B5 VL
notes: human IgG1
B14: PEV057 (antibody, human IgG1, V domains shown)
VH: B5 VH with V92T
VL: B5 VL
notes: human IgG1
B15: QGA408 (antibody, human IgG1, V domains shown)
VH: B5 VH with Y59F
VL: B5 VL
notes: human IgG1
B16: RZL961 (antibody, human IgG1, V domains shown)
VH: B5 VH with N53Q
VL: B5 VL
notes: human IgG1

Experiments:
[1] = target: recombinant human IL-21 (rhIL-21) (human, UniProt Q9HBE4 30-162, limits assumed); experiment: cell-based or functional assay
Chain of recombinant human IL-21 (rhIL-21) (Q9HBE4 30-162 limits assumed): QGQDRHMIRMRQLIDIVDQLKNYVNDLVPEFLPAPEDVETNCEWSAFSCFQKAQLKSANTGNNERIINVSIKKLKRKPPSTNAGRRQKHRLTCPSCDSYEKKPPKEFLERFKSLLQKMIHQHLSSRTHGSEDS

[2] = target: T1, Recombinant hIL-21-Fc (AcroBiosystems) (human, UniProt Q9HBE4 30-162); experiment: SPR, Fab on captured rhIL-21-Fc
T1 construct: bought; also called rhIL-21; not shown: Fc of the bought reagent, not described
T1 sequence (Q9HBE4 30-162): as the sequence (Q9HBE4 30-162 limits assumed) above

[3] = target: T2, human PD-1 (#PD1-H82E4, AcroBiosystems) (human, UniProt Q15116 25-167); experiment: SPR, PD-1 on captured IgG1
T2 construct: bought
T2 sequence (Q15116 25-167 limits assumed): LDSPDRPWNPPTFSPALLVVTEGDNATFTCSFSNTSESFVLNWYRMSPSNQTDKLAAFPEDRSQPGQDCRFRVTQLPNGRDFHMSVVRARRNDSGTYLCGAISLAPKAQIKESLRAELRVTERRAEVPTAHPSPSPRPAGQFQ

[4] = target: T3, cynomolgus PD-1 (#PD1-C52H5, AcroBiosystems) (cynomolgus monkey, UniProt B0LAJ3 25-170); experiment: SPR, PD-1 on captured IgG1
T3 construct: bought; also called cynomolgus monkey PD-1; not shown: the vendor's tag on the recombinant protein (AcroBiosystems #PD1-C52H5)
T3 sequence (B0LAJ3 entry or part of it limits assumed, form in doubt): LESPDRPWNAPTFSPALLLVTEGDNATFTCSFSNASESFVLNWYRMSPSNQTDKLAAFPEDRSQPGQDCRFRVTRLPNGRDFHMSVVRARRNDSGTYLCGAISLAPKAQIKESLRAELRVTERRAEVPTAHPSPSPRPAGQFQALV

Binder	Kd [3] [nM]	koff [3] [s⁻¹]	kon [3] [M⁻¹ s⁻¹]	Kd [4] [nM]	koff [4] [s⁻¹]	kon [4] [M⁻¹ s⁻¹]	also measured
B1							% pSTAT3+ Jurkat cells, 0.1 nM rhIL-21 + 0 nM antibody [1]: 82%; % pSTAT3+ Jurkat cells, 0.1 nM rhIL-21 + 0.1012 nM antibody [1]: 33.3%; % pSTAT3+ Jurkat cells, 0.1 nM rhIL-21 + 0.1602 nM antibody [1]: 33.2%; % pSTAT3+ Jurkat cells, 0.1 nM rhIL-21 + 0.2536 nM antibody [1]: 18.2%; % pSTAT3+ Jurkat cells, 0.1 nM rhIL-21 + 0.4015 nM antibody [1]: 22.8%; % pSTAT3+ Jurkat cells, 0.1 nM rhIL-21 + 0.6355 nM antibody [1]: 33%; % pSTAT3+ Jurkat cells, 0.1 nM rhIL-21 + 1.006 nM antibody [1]: 10.8%; % pSTAT3+ Jurkat cells, 0.1 nM rhIL-21 + 1.5925 nM antibody [1]: 9.01%; % pSTAT3+ Jurkat cells, 0.1 nM rhIL-21 + 2.5209 nM antibody [1]: 6.78%; % pSTAT3+ Jurkat cells, 0.1 nM rhIL-21 + 3.9906 nM antibody [1]: 5.32%; % pSTAT3+ Jurkat cells, 0.1 nM rhIL-21 + 6.3171 nM antibody [1]: 8.64%; % pSTAT3+ Jurkat cells, 0.1 nM rhIL-21 + 10 nM antibody [1]: 6.63%
B2							% pSTAT3+ Jurkat cells, 0.1 nM rhIL-21 + 0 nM antibody [1]: 82.5%; % pSTAT3+ Jurkat cells, 0.1 nM rhIL-21 + 0.1012 nM antibody [1]: 75.1%; % pSTAT3+ Jurkat cells, 0.1 nM rhIL-21 + 0.1602 nM antibody [1]: 72.4%; % pSTAT3+ Jurkat cells, 0.1 nM rhIL-21 + 0.2536 nM antibody [1]: 70.7%; % pSTAT3+ Jurkat cells, 0.1 nM rhIL-21 + 0.4015 nM antibody [1]: 69.9%; % pSTAT3+ Jurkat cells, 0.1 nM rhIL-21 + 0.6355 nM antibody [1]: 68.5%; % pSTAT3+ Jurkat cells, 0.1 nM rhIL-21 + 1.006 nM antibody [1]: 65.3%; % pSTAT3+ Jurkat cells, 0.1 nM rhIL-21 + 1.5925 nM antibody [1]: 64.8%; % pSTAT3+ Jurkat cells, 0.1 nM rhIL-21 + 2.5209 nM antibody [1]: 64.5%; % pSTAT3+ Jurkat cells, 0.1 nM rhIL-21 + 3.9906 nM antibody [1]: 61.8%; % pSTAT3+ Jurkat cells, 0.1 nM rhIL-21 + 6.3171 nM antibody [1]: 57.5%; % pSTAT3+ Jurkat cells, 0.1 nM rhIL-21 + 10 nM antibody [1]: 57.5%
B3							% pSTAT3+ Jurkat cells, 0.1 nM rhIL-21 + 0 nM antibody [1]: 82.1%; % pSTAT3+ Jurkat cells, 0.1 nM rhIL-21 + 0.1012 nM antibody [1]: 81%; % pSTAT3+ Jurkat cells, 0.1 nM rhIL-21 + 0.1602 nM antibody [1]: 72.4%; % pSTAT3+ Jurkat cells, 0.1 nM rhIL-21 + 0.2536 nM antibody [1]: 71.4%; % pSTAT3+ Jurkat cells, 0.1 nM rhIL-21 + 0.4015 nM antibody [1]: 71.5%; % pSTAT3+ Jurkat cells, 0.1 nM rhIL-21 + 0.6355 nM antibody [1]: 65.6%; % pSTAT3+ Jurkat cells, 0.1 nM rhIL-21 + 1.006 nM antibody [1]: 69.5%; % pSTAT3+ Jurkat cells, 0.1 nM rhIL-21 + 1.5925 nM antibody [1]: 58.7%; % pSTAT3+ Jurkat cells, 0.1 nM rhIL-21 + 2.5209 nM antibody [1]: 55.1%; % pSTAT3+ Jurkat cells, 0.1 nM rhIL-21 + 3.9906 nM antibody [1]: 42%; % pSTAT3+ Jurkat cells, 0.1 nM rhIL-21 + 6.3171 nM antibody [1]: 44.5%; % pSTAT3+ Jurkat cells, 0.1 nM rhIL-21 + 10 nM antibody [1]: 41.1%
B4							Kd [2]: 0.0328 nM; koff [2]: 1.14e-05 s⁻¹; kon [2]: 348000 M⁻¹ s⁻¹
B5	0.522	0.000174	333000	0.306	0.000153	499000	
B6	0.342	0.000117	344000	0.205	0.000101	493000	
B7	18.1	0.0278	1.54e+06	8.53	3.15	3.69e+08	
B8	0.606	0.000121	200000	0.86	0.000203	236000	
B9	0.511	0.000187	365000	0.296	0.000176	592000	
B10	0.429	0.000144	336000	0.246	0.000124	504000	
B11	0.506	0.000166	329000	0.362	0.000179	495000	
B12	0.955	0.000406	426000	0.541	0.000297	549000	
B13	0.955	0.00039	409000	0.627	0.000345	551000	
B14	0.521	0.000189	363000	0.327	0.00016	489000	
B15	0.48	0.000208	434000	0.328	0.000182	555000	
B16	1.21	0.000536	444000	0.785	0.000436	555000	
